Laboratory results as given in the supplement of paper PMC9170038.

These sequences were tested on MS2 coat protein (assay: apparent KD of MS2 coat protein; higher = weaker reporter binding). Conditions: Eterna round: R107; input ligand: theophylline 20 uM.
In short: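 The designed RNA switches were transcribed on-chip from Illumina sequencing clusters. In 100 mM Tris-HCl pH 7.5, 80 mM KCl and 4 mM MgCl2, without or with constant ligand, they were titrated with SNAP-549-labelled MS2 coat protein from 0.7 or 1.5 nM to 3 µM in twofold steps. Apparent KD is the per-design median of normalised cluster binding-curve fits.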

Sequence	apparent KD of MS2 coat protein [nM]
UGUAACAUGAGGAUCACCCAUGUGAGUGAUACCAGACUAGUGUUGGUCCCUUGGCAGCACGCUGGACGAAUGUGUAGUCUAUGCG [Same State - Theophylline A (Freestyle 18)]	107
GGCACAUGUGGAAGGAGCGUCGUACGAGCUACAUGAGGAUCACCCAUGUCGGUUAGUGUCCGACAGGUAGGUCGCCACAUUUAAC [Isiser]	235
CCGGGCUGUGGAGACAUAGCCCGGACUGAAGGAGCGGGAAUAAACCCAGGUAGGUCGCAGAGAUCCACAUGAGGAUCACCCAUGU [!0.S]	40.9
UGGAGUAUCAGACAUGAGGAUCACCCAUGUCGAGGACCGGUACGGCCGCCACUCGGCAGUUUGCGUCCUCAGGUACUCCGGGUAA [Edlatearis]	26.9
AGAUUACAUGUUUUAAUAAGAUAAACUGAUACCAGUGUAUAUAUUCACCCUUGGCAGCAGCAACAUGAGGAUCACCCAUGUAUUA [JR_SSTheophyA_Sub015]	18.7
UGGGUAGCAUAGAUUGAUAGCUACACUGAAGGAGCGAGGAUAACCUCAGGUAGGUCGCAGACAUGAGGAUCACCCAUGUAGAUGG [Same State Arginine A GF17]	174
UCGCUCUGGGUGAGUUCCGGAGAUGUGGAAGGAGCGCUCGAAAGAGCAGGUAGGUCGCCAACGGACAUGAGGAUCACCCAUGUAC [Same State - Arginine A (Freestyle 21)]	76.1
AGCCGGAUUACGGCCGCCACUGUAGACGUGACGAAAGUCGCGUCAACAUGAGGAUCACCCAUGUACAGGACCGGGUGGUCGGGCG [Omei Tryp B SS A v5]	247
CUCAUCCACGCGGCCGCCACUAUAUUGUGGUGCGAAUGUGUCGUAAUACAUGAGGAUCACCCAUGUAGGACCGGGCGUGGAUGAG [#09 Exclusion Tryptophan B]	14.4
ACGAUACGACAUGAGGAUCACCCAUGUGAUACCAGCCUGGAAACAGGCCCUUGGCAGCACAAAUACUCCAGAAACGUAUCGAAAA [MAT - Exclusion Theophlline A - Mod of Eli - D6]	262
GAGUUCCUGAGAGAUACCAGUGAAGCCACAUGAGGAUCACCCAUGUCCCUCACUCCGGCCCACCCUUGGCAGCUCGAAAGAUGGA [Exclusion Theophylline B GF 21]	132
AUCUCAUAGAGUGAUACCAGACUACAUGAGGAUCACCCAUGUUACAUUUAAAUAUCAUUUGUCCCUUGGCAGCACAUUAAGUACA [JR_Nu_ExcTheophyB_Sub019]	33.2
ACGACGCAUAGUGAUACCAGUAGAACAUGAGGAUCACCCAUGUCUGUGACGCACAAAUUCUGCCCUUGGCAGCACUAUGCGUCAG [SSTheo B #6]	18.1
UGGUACUAGGCGGCCGCCACUGGGAGAUACAUGAGGAUCACCCAUGUUUAAUGCCGAGAGGCAACUAGGACCGGGCCUAGUACAU	133
UCAUUUGAGUGAGAUGUAAGGUAUCAUGAUACCAGUAGAUAAUUAUACCCUUGGCAGCAUAACAUGAGGAUCACCCAUGUACAUG [Ac]	27
AAUGUAUUCCACAUGAGGAUCACCCAUGUGCGAGGACCGGUACGGCCGCCACUCGGUGUUGGGAUCUGUUCUGAAUACAUUAAUG [XTryp A #23]	37.5
GGGCGCGUGGACUGGCGUGCUCCGCUCCGUCGAGGACCGGUACGGCCGCCACUCGACAUGAGGAUCACCCAUGUGUGCGCUCGCG [#1 Exclusion - Tryptophan A Attempt #18 (HarryS)]	194
AGCGACAUGCAUGAUACCAGCUACAUGAGGAUCACCCAUGUACGUCAGUAAUGACUGUGUAGCCCUUGGCAGCAUAGAGCAUGUA [Exclusion - Theophylline B (Freestyle 14)]	28
UGUAACAUGAGGAUCACCCAUGUGAGUGAUACCAGACUAGUGUUAGUCCCUUGGCAGCACGCUGGGCGAGUGUGUAGUCUAUGCG [Same State - Theophylline A (Freestyle 16)]	136

Same assay, conditions: Eterna round: R107; input ligand: theophylline 2 mM

Sequence	apparent KD of MS2 coat protein [nM]
UACAUAUGCCGAAGGAGCGUGAGAUGCAAAGCAUCAUUCCUCACAUGAGGAUCACCCAUGUCACAGGUAGGUCGCGGCAUAUGUU [ArgBX 3]	117
UGACAUUGCUCAGAUACCAGACGUGAGCAUCAGCCAUGUGCCAACAAGUACAAAAUAAAUGUCCCUUGGCAGCUGAGCAAUGUCU [TheoBX 22 #MS2Left #AlternativeMS2 #Theo22]	175
AGCUCGCAUCCUCAAGCGUCAAAGACGCGUCGAGGACCGGUACGGCCGCCACUCGACCUGAGGAACACCCAGGUCCUCGCGAGCA [TrypAX 7 #SwitchBubble #AlternativeMS2 #MS2Late #CuTurnoff]	34.9
UAAUCCGGUCCUCGAUAACAUGGGUGAAUACGAGGACCGGUACGGCCGCCACUCGAUAACAUGAGGAUCACCCAUGUAAUAAUAA [|T'-M'-Trp-Ms2|_Design15]	73.6
UUGUAUAUGCGAAGGAGCGGGAAAUAUAUAUAUAUAAUCCUAACAUGAGGAUCACCCAUGUCCCAGGUAGGUCGCGCAUAUGUGG [12.G]	68.3
AUACAUGAGGAUCACCCAUGUUAUAGUGAAGGAGCGACAUUUAGGUCAGGUAGGUCGCACUAUAGUAUUAUAAUUCUUAGUUCUU [JR_ExcArginiA_Sub018]	21.8
CCAUAAGUACCGGUCCUCAGAUCCUCAUGACGAGGACCGGUACGGCCGCCACUCGAAACAUGAGGAUCACCCAUGUAAUAAUACC [Brourdmod18]	97.6
CCGCACAUGAGGAUCACCCAUGUCAGGGAUACCAGCCCAGACAUGGGCCCUUGGCAGCCCUGUAGCUGACGAAAGUCAGCAGCGG [Omei Theo A SS A v1]	57.6
AUAUUUAACGGAAGGAGCGCGGAAUAAUAAGUGGGUAAACAUGAGGAUCACCCAUGUAAACCGCAGGUAGGUCGCCGAAUAAUAA [AstrosEXyARgB#4]	86.1
GCUACACAGGACCGUACUAAGGAUUCGCCUCGAGGACCGGUACGGCCGCCACUCGUUGCGCGACAUGAGGAUCACCCAUGUGUUC [theeternabot_exclusion_MS2_Trp_A_33]	50.7
UGUCAGCGAAAGUUGACAUGUCUUACCGGUCGAGGACCGGUACGGCCGCCACUCGAUCACUCGCACAUGAGGAUCACCCAUGUUG [SS Tryp A #21]	23.8
AUCAUGGCCAUCGAUACCAGCUACAUGAGGAUCACCCAUGUAAACGGCCCGGUGAGAUGUAGCCCUUGGCAGCGAAGGGUCGAGG [Inenenatti]	72.3
AUGCAUAUCAGAAGGAGCGUCAUUAACAUGAGGAUCACCCAUGUAACAUUGAAUUCGAUGAGACAGGUAGGUCGCUGAAUAGUAA [SS-ArgB26]	37.9
ACAUGAGGGCGAAGGAGCGCGUACAUGAGGAUCACCCAUGUCUAUAUCCGUCCGCGUGUAACGCAGGUAGGUCGCGCUGUUAAUU [#14 Exclusion - Arginine B]	20
UUCGUUUGCGGAAGGAGCGACGGACAUCGGUGACCCACGCACAUGAGGAUCACCCAUGUACGUCAGGUAGGUCGCCGCUAAGAGU [XArg-B4]	41.3
AACAUGAGGAUCACCCAUGUUCUCGUGUACCGAGGACCGGUACGGCCGCCACUCGGUUCUCGCGAGGAUGGUCAAAGACUAUCCA [Omei Trp A SS B v5]	24.7
GGACUAACCAGAAGGAGCGACGCAAGCAGAAACUGCAAUCCUCCGCACGAGGAUCACCCGUGUCAGGUAGGUCGCUGGUUAGUCG [ArgBX 28]	30.1
GGCACAUGUGGAAGGAGCGUCGUACGAGCUACAUGAGGAUCACCCAUGUCGGUUAGUGUCCGACAGGUAGGUCGCCACAUUUAAC [Isiser]	551
CCGGGCUGUGGAGACAUAGCCCGGACUGAAGGAGCGGGAAUAAACCCAGGUAGGUCGCAGAGAUCCACAUGAGGAUCACCCAUGU [!0.S]	46.8
